In US20130110249A1 (UNIVERSITY OF ROCHESTER, published 2013):

T1: recombinant His-glucosaminidase (His-Gmd) of Staphylococcus aureus autolysin (Staphylococcus aureus, UniProt A7X0T9 775-1254)
T1 construct: also called Gmd-His; recombinant Gmd
T1 sequence: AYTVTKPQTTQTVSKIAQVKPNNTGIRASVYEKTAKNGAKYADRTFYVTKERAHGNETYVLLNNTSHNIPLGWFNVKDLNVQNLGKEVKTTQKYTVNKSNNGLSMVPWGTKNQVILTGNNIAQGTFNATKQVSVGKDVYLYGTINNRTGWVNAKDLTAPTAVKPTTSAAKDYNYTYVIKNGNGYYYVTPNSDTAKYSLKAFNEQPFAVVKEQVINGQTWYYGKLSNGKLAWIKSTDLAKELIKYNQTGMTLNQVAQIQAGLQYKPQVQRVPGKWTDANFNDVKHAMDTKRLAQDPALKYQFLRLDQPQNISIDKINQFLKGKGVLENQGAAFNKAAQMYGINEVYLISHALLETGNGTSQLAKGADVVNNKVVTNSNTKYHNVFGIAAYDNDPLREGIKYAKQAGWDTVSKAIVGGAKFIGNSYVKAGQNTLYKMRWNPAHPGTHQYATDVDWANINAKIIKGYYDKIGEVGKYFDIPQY

T2: native Gmd of S. aureus Xen29 (Staphylococcus aureus, UniProt P0C5Z8 776-1255, limits assumed)
T2 construct: domain: glucosaminidase (Gmd) subunit of autolysin
T2 sequence (looked up): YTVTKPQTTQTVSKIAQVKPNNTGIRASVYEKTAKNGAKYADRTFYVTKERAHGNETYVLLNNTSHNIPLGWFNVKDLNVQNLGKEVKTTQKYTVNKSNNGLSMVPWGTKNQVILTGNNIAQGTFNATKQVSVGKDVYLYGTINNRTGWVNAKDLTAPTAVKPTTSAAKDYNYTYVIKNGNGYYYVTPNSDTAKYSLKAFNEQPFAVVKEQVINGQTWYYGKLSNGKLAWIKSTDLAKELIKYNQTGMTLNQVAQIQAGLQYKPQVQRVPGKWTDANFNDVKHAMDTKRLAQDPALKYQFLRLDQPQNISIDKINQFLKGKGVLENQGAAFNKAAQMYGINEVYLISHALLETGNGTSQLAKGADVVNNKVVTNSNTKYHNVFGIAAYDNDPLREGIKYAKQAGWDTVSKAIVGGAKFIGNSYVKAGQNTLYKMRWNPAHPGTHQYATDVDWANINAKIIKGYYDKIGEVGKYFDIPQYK

B1: anti-Gmd monoclonal antibody 1C11 (antibody, V domains shown)
VH: QIQLVQSGPELKKPGETVKISCKASGYTFTTYGMSWVNQAPGKGLKWMGWINTYSGVPTYADDFKGRFVFSLETSASTAYLQINNLKNEDTATYFCAREEYSSGYAAWFPYWGQGTLVTVSA
VL: DIVLTQSPATLSVTPGDSVSLSCRASQSISNNLHWYQQKSHESPRLLIEYASRSISGIPSRFSGGGSGTDFTLSINSVESEDFGLYFCQQSNSWPLTFGAGTKLELK
notes: also called mAb 1C11; mouse 1C11
B2: anti-Gmd monoclonal antibody 3A8 (antibody, V domains shown)
VH: EVQLQESGGGLVQPGGSMKLSCAASGFTFSDAWMDWVRQSPEKGLEWVAEIKDKTNNHATYYAESVKGRFTISRDVSKSRVFLQMNSLRPEDTGIYYCTSGPYFDYWGQGTTLTVSS
VL: DIVMTQSHKFMSTSVGDRVSITCKASQDVSTAVAWYQQKPGQSPKLLIYWTSTRHTGVPDRFTGSGSGTDFTLTISSVQAKDLALYYCQQHYTTPYTFGGGTKLEIK
notes: also called mAb 3A8; hybridoma 3A8

Columns and labels:
[1] = biological target: T1, recombinant His-glucosaminidase …; test: method not stated; hybridomas screened by ELISA and western dot-blot
[2] = biological target: T2, native Gmd of S. aureus Xen29; test: estimate from the dose dependence of the Xen29 growth (light scattering) assay, assuming about ten times the Kd is required

Binder	Kd [1] [nM]	Kd [2] [nM]
B1	≤ 1	~1
B2	≤ 1	~1
